These results are taken from patent publication US20210363204A1.

The target in the test is human Nav1.7, Q15858. Conditions: chains peptide; modification not given.

B1: recombinant Protoxin-II (peptide)
chain: GPYCQKWMWTCDSERKCCEGMVCRLWCKKKLW
Usually IC50 stands for the concentration that inhibits the measured activity by half. In turn, B1 showed an IC50 of 62 nM.
